The source of these data is patent publication US7423021B2, “Peptidic thrombin inhibitors” (NSCI Novel Science International GmbH, priority 2003, dated 2008).

Numbered stars: 1 amine (or outer) side, 2 acyl side, 3 side chain; on linkers, the order of the positions; unused ones are H or OH. Square brackets hold non-standard residues; d marks the D form. Peptide text beside a SMILES is read from it. * marks the point of attachment. Ppd = 4-phenylpiperidine-4-carboxylic acid, O=C(C1(c2ccccc2)CCN([*:1])CC1)[*:2]; Phe(4-NO2) = N[C@@H](Cc1ccc([N+](=O)[O-])cc1)C(=O)O; Tpi = O=C(O)[C@@H]1Cc2c([nH]c3ccccc23)CN1; X1 = N=C(N)NC[C@H]1CC[C@H](C(=O)*)CC1; hArg = N=C(N)NCCCC[C@H](N)C(=O)O; Tic = O=C(O)[C@@H]1Cc2ccccc2CN1; Cha = N[C@@H](CC1CCCCC1)C(=O)O; Cit = NC(=O)NCCC[C@H](N)C(=O)O; dCha = N[C@H](CC1CCCCC1)C(=O)O; Phg = N[C@H](C(=O)O)c1ccccc1; Nle = CCCC[C@H](N)C(=O)O; Aze = O=C(O)[C@@H]1CCN1; Tea = thienylalanine

For orientation: Ki means the equilibrium dissociation constant of an inhibitor or competing ligand from its target. A high value points to weaker binding.

For the first assay, the target named is thrombin (Homo sapiens, UniProt P00734). The assay can be described thus: in-vitro inhibition of the amidase activity of thrombin (fluorogenic substrate Tos-Gly-Pro-Arg-AMC). The assay is classed as biochemical. Further details: 10 μl of human thrombin solution.
Conditions: not given
How it is done: The values of the inhibiting constants Ki were obtained from assays in which thrombin hydrolyzes the fluorogenic substrate Tos-Gly-Pro-Arg-(7-amino-4-methylcumarin). The assays were carried out in […] of assay buffer (0.05 M tris, 0.1 M NaCl, 0.1% PEG 8000, pH 7.6) with 10 μl of human thrombin solution (10^−5 U/μl in the assay buffer) and 140 μl of a solution of the fluorogenic substrate in an assay buffer at a concentration of 30 μM. Solutions of the test compound (10 μl) were added at various concentrations. The rates of the hydrolysis of the substrate were measured by monitoring the reactions at […] of the release of 7-amino-4-methylcumarin using AMC. The reaction reached an equilibrium state within three minutes, after thrombin, the substrate, and an inhibitor were mixed. The kinetic data of the competing inhibition (Km, Vmax, and Ki) were analyzed by means of the representation according to Hanes (A/V against A at various values of A, where A is the substrate concentration and V the reaction rate).
The compound `N=C(N)NCCCC[C@H](NC(=O)[C@@H](Cc1ccc(O)cc1)NC(=O)[C@@H]1CCN1C(=O)[C@@H](CC1CCCCC1)NC(=O)[C@H]1CC[C@H](CNC(=N)N)CC1)C(N)=O` [Example 31, Trans-4-(guanidinomethyl)cyclohexanecarboxylic acid-D-Cha-L-Aze-D-Try-L-Har amide] (X1-[dCha][Aze][dY][hArg]-NH2) registered a Ki of 3 nM.

The same assay, now with this note: peptide concentration of 250 nM.
For the compound “N-acetyl-L-Tea-D-Cha-L-Aze-D-Tyr-L-Har amide (Ac-[Tea][dCha][Aze][dY][hArg]-NH2) [Example 25]”, the “inhibition of the amidase activity of the thrombin” value (from here on “inhibition”) came out at 74%.
Same read-out and setting: to “N-acetyl-D-Phe-D-Cha-L-Aze-D-Tyr-L-Har amide (Ac-[dF][dCha][Aze][dY][hArg]-NH2; SMILES CC(=O)N[C@H](Cc1ccccc1)C(=O)N[C@H](CC1CCCCC1)C(=O)N1CC[C@H]1C(=O)N[C@H](Cc1ccc(O)cc1)C(=O)N[C@@H](CCCCNC(=N)N)C(N)=O) [Example 20]” belongs 77%; to “N-acetyl-L-Ala-D-Cha-L-Aze-D-Tyr-L-Har amide (Ac-A[dCha][Aze][dY][hArg]-NH2; SMILES CC(=O)N[C@@H](C)C(=O)N[C@H](CC1CCCCC1)C(=O)N1CC[C@H]1C(=O)N[C@H](Cc1ccc(O)cc1)C(=O)N[C@@H](CCCCNC(=N)N)C(N)=O) [Example 19]”, 77%.
The same measure, in the same setting: to “N-acetyl-L-Trp-D-Cha-L-Aze-D-Tyr-L-Har amide (Ac-W[dCha][Aze][dY][hArg]-NH2; SMILES CC(=O)N[C@@H](Cc1c[nH]c2ccccc12)C(=O)N[C@H](CC1CCCCC1)C(=O)N1CC[C@H]1C(=O)N[C@H](Cc1ccc(O)cc1)C(=O)N[C@@H](CCCCNC(=N)N)C(N)=O) [Example 18]” belongs 76%; to “N-acetyl-L-Ppd-D-Cha-L-Aze-D-Tyr-L-Har amide (Ac-[Ppd][dCha][Aze][dY][hArg]-NH2) [Example 24]”, 76%; to “N-acetyl-L-Nhm-D-Cha-L-Aze-D-Tyr-L-Har amide (Ac-[Tpi][dCha][Aze][dY][hArg]-NH2; SMILES CC(=O)N1Cc2[nH]c3ccccc3c2C[C@H]1C(=O)N[C@H](CC1CCCCC1)C(=O)N1CC[C@H]1C(=O)N[C@H](Cc1ccc(O)cc1)C(=O)N[C@@H](CCCCNC(=N)N)C(N)=O) [Example 22]”, 80%.
The same measure, in the same setting: to “N-acetyl-L-Cha-D-Cha-L-Aze-D-Tyr-L-Har amide (Ac-[Cha][dCha][Aze][dY][hArg]-NH2) [Example 28]” belongs 90%; to “N-acetyl-L-Phg-D-Cha-L-Aze-D-Tyr-L-Har amide (Ac-[Phg][dCha][Aze][dY][hArg]-NH2) [Example 26]”, 95%.
On to “N-acetyl-L-Pnp-D-Cha-L-Aze-D-Tyr-L-Har amide (Ac-[Phe(4-NO2)][dCha][Aze][dY][hArg]-NH2; SMILES CC(=O)N[C@@H](Cc1ccc([N+](=O)[O-])cc1)C(=O)N[C@H](CC1CCCCC1)C(=O)N1CC[C@H]1C(=O)N[C@H](Cc1ccc(O)cc1)C(=O)N[C@@H](CCCCNC(=N)N)C(N)=O) [Example 29]”, for which the “inhibition” value stood at 72%.
Same read-out and setting: next, “N-acetyl-L-Iq3-D-Cha-L-Aze-D-Tyr-L-Har amide (Ac-[Tic][dCha][Aze][dY][hArg]-NH2) [Example 23]”: 72%; “N-acetyl-L-Nle-D-Cha-L-Aze-D-Tyr-L-Har amide (Ac-[Nle][dCha][Aze][dY][hArg]-NH2; SMILES CCCC[C@H](NC(C)=O)C(=O)N[C@H](CC1CCCCC1)C(=O)N1CC[C@H]1C(=O)N[C@H](Cc1ccc(O)cc1)C(=O)N[C@@H](CCCCNC(=N)N)C(N)=O) [Example 27]”: 89%.

Staying with this assay, now noted: peptide concentration of 1 μM.
Take “N-acetyl-L-Ala-D-Cha-L-Pro-D-Tyr-L-Har amide (Ac-A[dCha]P[dY][hArg]-NH2; SMILES CC(=O)N[C@@H](C)C(=O)N[C@H](CC1CCCCC1)C(=O)N1CCC[C@H]1C(=O)N[C@H](Cc1ccc(O)cc1)C(=O)N[C@@H](CCCCNC(=N)N)C(N)=O) [Example 17]”: the “inhibition” value is recorded as 56%.
On to “N-acetyl-L-Tyr-D-Pro-L-Cha-D-Pro-D-Tyr-L-Arg amide (Ac-Y[dP][Cha][dP][dY]R-NH2; SMILES CC(=O)N[C@@H](Cc1ccc(O)cc1)C(=O)N1CCC[C@@H]1C(=O)N[C@@H](CC1CCCCC1)C(=O)N1CCC[C@@H]1C(=O)N[C@H](Cc1ccc(O)cc1)C(=O)N[C@@H](CCCNC(=N)N)C(N)=O) [Example 15]”, for which the “inhibition” value is recorded as 44%.
On the same count and under the same terms, to “N-acetyl-L-Ser-L-Ala-L-Cha-D-Pro-D-Tyr-L-Arg amide (Ac-SA[Cha][dP][dY]R-NH2; SMILES CC(=O)N[C@@H](CO)C(=O)N[C@@H](C)C(=O)N[C@@H](CC1CCCCC1)C(=O)N1CCC[C@@H]1C(=O)N[C@H](Cc1ccc(O)cc1)C(=O)N[C@@H](CCCNC(=N)N)C(N)=O) [Example 10]” belongs 47%; to “N-acetyl-D-Gln-D-His-L-Cha-D-Pro-D-Tyr-L-Arg amide (Ac-[dQ][dH][Cha][dP][dY]R-NH2; SMILES CC(=O)N[C@H](CCC(N)=O)C(=O)N[C@H](Cc1c[nH]cn1)C(=O)N[C@@H](CC1CCCCC1)C(=O)N1CCC[C@@H]1C(=O)N[C@H](Cc1ccc(O)cc1)C(=O)N[C@@H](CCCNC(=N)N)C(N)=O) [Example 1]”, 59%; to “N-acetyl-D-Tyr-L-Cha-D-Pro-D-Tyr-L-Arg amide (Ac-[dY][Cha][dP][dY]R-NH2; SMILES CC(=O)N[C@H](Cc1ccc(O)cc1)C(=O)N[C@@H](CC1CCCCC1)C(=O)N1CCC[C@@H]1C(=O)N[C@H](Cc1ccc(O)cc1)C(=O)N[C@@H](CCCNC(=N)N)C(N)=O) [Example 13]”, 47%.
On the same count and under the same terms, to “N-acetyl-L-Ile-L-Arg-L-Cha-D-Pro-D-Tyr-L-Arg amide (Ac-IR[Cha][dP][dY]R-NH2; SMILES CC[C@H](C)[C@H](NC(C)=O)C(=O)N[C@@H](CCCNC(=N)N)C(=O)N[C@@H](CC1CCCCC1)C(=O)N1CCC[C@@H]1C(=O)N[C@H](Cc1ccc(O)cc1)C(=O)N[C@@H](CCCNC(=N)N)C(N)=O) [Example 5]” belongs 61%.
Still for that read-out and setting: next, “N-acetyl-L-Trp-L-Cha-D-Pro-D-Tyr-L-Arg amide (Ac-W[Cha][dP][dY]R-NH2; SMILES CC(=O)N[C@@H](Cc1c[nH]c2ccccc12)C(=O)N[C@@H](CC1CCCCC1)C(=O)N1CCC[C@@H]1C(=O)N[C@H](Cc1ccc(O)cc1)C(=O)N[C@@H](CCCNC(=N)N)C(N)=O) [Example 9]”: 63%; “N-acetyl-D-Val-D-His-L-Cha-D-Pro-D-Tyr-L-Arg amide (Ac-[dV][dH][Cha][dP][dY]R-NH2; SMILES CC(=O)N[C@@H](C(=O)N[C@H](Cc1c[nH]cn1)C(=O)N[C@@H](CC1CCCCC1)C(=O)N1CCC[C@@H]1C(=O)N[C@H](Cc1ccc(O)cc1)C(=O)N[C@@H](CCCNC(=N)N)C(N)=O)C(C)C) [Example 3]”: 51%; “N-acetyl-L-Arg-L-Cha-D-Pro-D-Tyr-L-Arg amide (Ac-R[Cha][dP][dY]R-NH2; SMILES CC(=O)N[C@@H](CCCNC(=N)N)C(=O)N[C@@H](CC1CCCCC1)C(=O)N1CCC[C@@H]1C(=O)N[C@H](Cc1ccc(O)cc1)C(=O)N[C@@H](CCCNC(=N)N)C(N)=O) [Example 14]”: 47%.
Take “N-acetyl-L-Ala-L-Cha-D-Pro-D-Tyr-L-Arg amide (Ac-A[Cha][dP][dY]R-NH2; SMILES CC(=O)N[C@@H](C)C(=O)N[C@@H](CC1CCCCC1)C(=O)N1CCC[C@@H]1C(=O)N[C@H](Cc1ccc(O)cc1)C(=O)N[C@@H](CCCNC(=N)N)C(N)=O) [Example 4]”: the “inhibition” value was determined as 44%.
The same measure, in the same setting: to “N-acetyl-L-Ser-L-Ser-L-Cha-D-Pro-D-Tyr-L-Arg amide (Ac-SS[Cha][dP][dY]R-NH2; SMILES CC(=O)N[C@@H](CO)C(=O)N[C@@H](CO)C(=O)N[C@@H](CC1CCCCC1)C(=O)N1CCC[C@@H]1C(=O)N[C@H](Cc1ccc(O)cc1)C(=O)N[C@@H](CCCNC(=N)N)C(N)=O) [Example 7]” belongs 40%.
On the same count and under the same terms, to “N-acetyl-L-Ala-D-Cha-L-Aze-D-Tyr-L-Arg amide (Ac-A[dCha][Aze][dY]R-NH2; SMILES CC(=O)N[C@@H](C)C(=O)N[C@H](CC1CCCCC1)C(=O)N1CC[C@H]1C(=O)N[C@H](Cc1ccc(O)cc1)C(=O)N[C@@H](CCCNC(=N)N)C(N)=O) [Example 16]” belongs 63%; to “N-acetyl-L-Tyr-L-Cit-L-Cha-D-Pro-D-Tyr-L-Arg amide (Ac-Y[Cit][Cha][dP][dY]R-NH2; SMILES CC(=O)N[C@@H](Cc1ccc(O)cc1)C(=O)N[C@@H](CCCNC(N)=O)C(=O)N[C@@H](CC1CCCCC1)C(=O)N1CCC[C@@H]1C(=O)N[C@H](Cc1ccc(O)cc1)C(=O)N[C@@H](CCCNC(=N)N)C(N)=O) [Example 6]”, 55%; to “N-acetyl-D-Glu-L-Cha-D-Pro-D-Tyr-L-Arg amide (Ac-[dE][Cha][dP][dY]R-NH2; SMILES CC(=O)N[C@H](CCC(=O)O)C(=O)N[C@@H](CC1CCCCC1)C(=O)N1CCC[C@@H]1C(=O)N[C@H](Cc1ccc(O)cc1)C(=O)N[C@@H](CCCNC(=N)N)C(N)=O) [Example 2]”, 58%.
